Reference: patent publication US20150079657, “TARGETED HISTONE ACETYLATION” (SIGMA-ALDRICH CO. LLC, published 2015)

Key:
ZF(Oct4+181)-p300 = ZF(Oct4+181)-p300 (Artificial Sequence); experiment: cell_activity; OCT4 mRNA activation in HEK293, 48 h; H3K18 and H3K27 acetylation also increased by ChIP (FIG. 1); settings: tags: C-terminal fusion to human p300 HAT domain aa 1284-1673 (NM_001429)
Procedure: Expression vectors encoding ZF(Oct4+181)-p300 or one of the control fusion proteins described above were transfected into HEK 293 cells. Control cells were transfected with vectors encoding GFP, p65 (no ZF), or p300 (no ZF). After 48 hrs, the cells were harvested and total RNA was isolated. The levels of OCT4 mRNA and cyclophilin A (i.e., PPIA) endogenous control mRNA were measured by real time reverse transcriptase polymerase chain reaction (RT-PCR) (Life Technologies, Carlsbad, Calif.). The OCT4/cyc ratio was used for normalizing OCT4 expression.

ZF6961 (ZF(PEDF))-p300 = ZF6961 (ZF(PEDF))-p300 (Artificial Sequence); experiment: cell_activity; PEDF mRNA activation in HEK293, 72 h; settings: tags: fusion to human p300 HAT domain aa 1284-1673
Procedure: Expression vectors encoding ZF(PEDF)-p300 or ZF(PEDF)-p65 were transfected into HEK 293 cells. Control cells were transfected with vectors encoding GFP, p65 (no ZF), or p300 (no ZF). Total RNA was isolated 72 hours later, and the levels of PEDF mRNA and cyclophilin A endogenous control mRNA were measured by RT-PCR. The PEDF/cyc ratio was used for normalizing PEDF expression.

Chain of ZF6961 (ZF(PEDF))-p300 (Artificial Sequence) (chain, as listed by the source): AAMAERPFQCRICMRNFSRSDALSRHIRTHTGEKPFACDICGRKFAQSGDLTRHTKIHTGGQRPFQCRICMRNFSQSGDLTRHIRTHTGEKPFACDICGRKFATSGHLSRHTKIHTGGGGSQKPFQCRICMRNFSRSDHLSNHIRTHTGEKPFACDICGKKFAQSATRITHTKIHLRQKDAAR
Chain of ZF(Oct4+181)-p300 (Artificial Sequence) (chain, as listed by the source): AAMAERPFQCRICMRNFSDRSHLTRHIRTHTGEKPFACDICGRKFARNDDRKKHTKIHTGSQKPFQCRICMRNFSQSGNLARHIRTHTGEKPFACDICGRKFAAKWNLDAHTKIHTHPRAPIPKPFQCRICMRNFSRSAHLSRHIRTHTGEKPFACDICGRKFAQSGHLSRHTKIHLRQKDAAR

B1: OCT4 +181 target site (dsDNA)
DNA 1: GGAGGGCCAGGAATCGGGC
DNA 2: GCCCGATTCCTGGCCCTCC
For B1, the activity (ZF(Oct4+181)-p300) was greater than 25 fold.

B2: PEDF -92 target site (dsDNA)
DNA 1: GGATGGTGGTGCAGCAGTG
DNA 2: CACTGCTGCACCACCATCC
With B2 the activity (ZF6961 (ZF(PEDF))-p300) was greater than 2.5 fold.
